Publication PMC2413239

Biological target: X. laevis FcRγ subunit, c-myc-tagged (X. laevis)

surface expression of XFL1.7-HA on transiently transfected 293T cells (anti-HA surface staining, flow cytometry), alone against co-transfected with FcRγ: 2 fold
Substance: XFL1.7-HA with its own TM1 region (X. laevis XFL1.7, extracellular plus transmembrane part) (domain or fragment)
